Data reported in patent US20250177546A1 (SANYOU BIOPHARMACEUTICALS, published 2025).

Key:
[1] = molecular target: T1, huROR1-His (human ROR1 ECD AA30-406 with C-terminal His tag, made in house) (human, UniProt Q01973 30-406); experiment: Biacore T200 SPR; huROR1-His amine-coupled (~75 RU), antibody 4 and 20 nM as analyte, 1:1 Langmuir fit
T1 construct: range 30-406; Expressed in HEK293; also called antigen protein huROR1-His; not shown: C-terminal His tag
Experimental: Protein coupling: The huROR1-His protein produced in Example 1.2 was diluted to 5.6 μg/mL with NaAc buffer, pH 5.0, the flow rate was set to 10 μL/min, the chip activation time was set to the default value of 420 s with a mixture of 1-ethyl-(3-dimethylaminopropyl)carbodiimide (EDC) and N-hydroxysuccinimide (NHS), and the antigen protein huROR1-His was fixed to a level of about 75 RU using a coupling mode with a preset coupling amount, and the activated groups that were not bound to the test sample were blocked with ethanolamine.
Sample test conditions: PBS buffer (pH 7.4) containing 0.05% Tween-20 was used as the running buffer, and the running buffer was used as the control test sample. A series of antibody concentrations (4 nM, 20 nM) were set. During sample analysis, the flow rate was set to 30 μL/min, the binding time was 120 s, and the dissociation time was 360 s. After the dissociation was completed, 10 mM Gly-HCl (pH 2.0) was used for regeneration for 20 s to completely remove the antibody bound to the ligand.
Parameter fitting: The experiment was run in multiple cycles, with the response signal taking the analysis time as the horizontal axis and the response value as the vertical axis. After double reference subtraction, the obtained data were fitted by BiAcore T200 analysis software. The fitting model adopted was 1:1 Langmuir binding model, and Affinity metrics such as the binding dissociation constant were determined.

[2] = molecular target: T2, human ROR1 on cells (full-length human ROR1 on huROR1-HEK293 cells; human ROR1 on A549 and HT-29 tumor cells) (human, UniProt Q01973 30-937); experiment: flow cytometry (FACS) on A549 tumor cells, anti-human IgG-Fc secondary antibody, MFI
T2 construct: whole, on cells; also called hROR1-HEK293T; A549 tumor cells
Experimental: (§1) In this example, the binding activity of the antibody was evaluated using two types of cells, huROR1-HEK293 cells over-expressing human ROR1 and A549 tumor cells.
(§2) The specific method was as follows: huROR1-HEK293 cells or A549 cells in the logarithmic growth phase were prepared to a single-cell suspension, the density was adjusted to 1×10⁶ cells/mL, then 100 μL/well cells were added to a 96-well round-bottom plate, centrifuged at 4° C., 300 g, and the supernatant was removed. […] After the incubation, the cell mixture was washed three times and then 100 μL of 1:300 diluted secondary antibody Goat F(ab′)₂ Anti-Human IgG-Fc (abcam, ab98596) was added. The mixture was incubated at 4° C. in the dark for 30 min. After washing three times, the cells were detected by flow cytometry (Beckman, CytoFLEX AOO-1-1102).

[3] = molecular target: T3, MusROR1-His (mouse ROR1 ECD AA30-406 with C-terminal His tag) (mouse, UniProt Q9Z139 30-406); experiment: ELISA, MusROR1-His coated at 2 µg/mL, goat anti-human Fc-HRP, OD450
T3 construct: range 30-406; Expressed in HEK293; also called mouse ROR1 antigen protein; not shown: C-terminal His tag
Experimental: (§3) 96-well ELISA plate was coated with 2 μg/mL MusROR1-His (30 μL/well) at 4° C. overnight. The next day, the plate was washed three times with PBST and then blocked with 5% skim milk for 2 h. […] After washing with PBST for three times, the secondary antibody Goat-anti-human Fc-HRP (abcam, ab97225) was added and incubated for 1 h. After incubation, the plate was washed with PBST for 6 times and TMB (SurModics, TMBS-1000-01) was added for color development. According to the color development results, 2 M HCl was added to terminate the reaction, and the data were read at OD450 using a microplate reader (Molecular Devices, SpecterMax 190).

[4] = molecular target: T1, huROR1-His (human ROR1 ECD AA30-406 …); experiment: ELISA, huROR1-His coated plate, goat anti-human Fc-HRP, OD450
[5] = molecular target: T1, huROR1-His (human ROR1 ECD AA30-406 …); experiment: as above; remark: listed apart in the source
[6] = molecular target: T1, huROR1-His (human ROR1 ECD AA30-406 …); experiment: as above; remark: listed apart in the source
[7] = molecular target: T2, human ROR1 on cells (full-length human …); experiment: flow cytometry (FACS) on huROR1-HEK293 cells, anti-human IgG-Fc secondary antibody, MFI
Experimental: as §1, §2

[8] = molecular target: T1, huROR1-His (human ROR1 ECD AA30-406 …); experiment: ELISA, huROR1-His coated at 2 µg/mL, goat anti-human Fc-HRP, OD450
Experimental: as §3, with “huROR1-His” for “MusROR1-His”

[9] = molecular target: T4, huROR2-His (human ROR2 ECD AA34-403 with C-terminal His tag) (human, UniProt Q01974 34-403); experiment: ELISA, huROR2-His coated at 2 µg/mL, goat anti-human Fc-HRP, OD450
T4 construct: range 34-403; Expressed in HEK293; also called human ROR2 antigen protein; not shown: C-terminal His tag
Experimental: as §3, with “huROR2-His” for “MusROR1-His”, “TMBS-1000-0)” for “TMBS-1000-01)”

[10] = molecular target: T1, huROR1-His (human ROR1 ECD AA30-406 …); experiment: Gator (BLI) Advanced Kinetics; antibody 30 nM, huROR1-His 480-7.5 nM
Experimental: First, Q buffer was prepared with PBS (10 mM pH7.4) (IgG-free, purchased from Jackson ImmunoResearch Lab)+0.02% Tween 20 (purchased from thermo)+0.2% BSA (purchased from source culture), and the stock solution of the test antibody was diluted with the prepared Q buffer to a working solution with a final concentration of 30 nM, the stock solution of the antigen protein huROR1-His was prepared with Q buffer into a working solution with multiple dilutions (480, 240, 120, 60, 30, 15, 7.5 nM), and detection and analysis was then performed with Gator instrument and its accompanying software, selecting the Advanced Kinetics experimental mode is used.

T1 sequence (Q01973 30-406 limits assumed): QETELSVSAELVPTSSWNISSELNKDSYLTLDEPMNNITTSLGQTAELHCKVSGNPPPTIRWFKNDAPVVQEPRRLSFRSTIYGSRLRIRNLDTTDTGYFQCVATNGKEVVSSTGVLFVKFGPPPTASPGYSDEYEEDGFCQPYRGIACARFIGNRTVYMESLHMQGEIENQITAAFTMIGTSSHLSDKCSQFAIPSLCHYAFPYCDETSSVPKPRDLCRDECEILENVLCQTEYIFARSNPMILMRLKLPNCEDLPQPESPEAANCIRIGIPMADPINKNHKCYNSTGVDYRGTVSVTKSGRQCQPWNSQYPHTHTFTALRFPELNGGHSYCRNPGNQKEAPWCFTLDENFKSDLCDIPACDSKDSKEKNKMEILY
T2 sequence (Q01973 30-937): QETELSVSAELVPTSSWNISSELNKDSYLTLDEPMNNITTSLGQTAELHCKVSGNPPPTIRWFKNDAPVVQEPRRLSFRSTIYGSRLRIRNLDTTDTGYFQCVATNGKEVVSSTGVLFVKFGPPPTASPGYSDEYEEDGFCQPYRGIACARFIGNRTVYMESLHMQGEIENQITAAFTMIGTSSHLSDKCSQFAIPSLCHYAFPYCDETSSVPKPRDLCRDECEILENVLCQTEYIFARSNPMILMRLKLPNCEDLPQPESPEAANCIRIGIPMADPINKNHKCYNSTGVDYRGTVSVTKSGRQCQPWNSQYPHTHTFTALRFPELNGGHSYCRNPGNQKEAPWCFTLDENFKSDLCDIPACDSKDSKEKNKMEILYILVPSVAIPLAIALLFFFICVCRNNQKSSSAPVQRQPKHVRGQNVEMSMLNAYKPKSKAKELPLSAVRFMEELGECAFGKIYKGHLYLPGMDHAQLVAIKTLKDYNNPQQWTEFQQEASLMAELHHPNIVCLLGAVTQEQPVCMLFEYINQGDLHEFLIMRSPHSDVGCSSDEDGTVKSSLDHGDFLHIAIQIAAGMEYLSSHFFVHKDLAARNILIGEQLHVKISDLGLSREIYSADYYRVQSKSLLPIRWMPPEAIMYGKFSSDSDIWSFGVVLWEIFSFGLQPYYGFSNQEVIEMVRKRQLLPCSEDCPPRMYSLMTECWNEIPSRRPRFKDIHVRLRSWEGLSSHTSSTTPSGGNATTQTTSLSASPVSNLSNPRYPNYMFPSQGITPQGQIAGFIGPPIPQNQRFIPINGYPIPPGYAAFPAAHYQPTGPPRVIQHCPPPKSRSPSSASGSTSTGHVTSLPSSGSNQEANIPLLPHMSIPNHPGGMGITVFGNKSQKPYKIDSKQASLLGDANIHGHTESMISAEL
T3 sequence (Q9Z139 30-406 limits assumed): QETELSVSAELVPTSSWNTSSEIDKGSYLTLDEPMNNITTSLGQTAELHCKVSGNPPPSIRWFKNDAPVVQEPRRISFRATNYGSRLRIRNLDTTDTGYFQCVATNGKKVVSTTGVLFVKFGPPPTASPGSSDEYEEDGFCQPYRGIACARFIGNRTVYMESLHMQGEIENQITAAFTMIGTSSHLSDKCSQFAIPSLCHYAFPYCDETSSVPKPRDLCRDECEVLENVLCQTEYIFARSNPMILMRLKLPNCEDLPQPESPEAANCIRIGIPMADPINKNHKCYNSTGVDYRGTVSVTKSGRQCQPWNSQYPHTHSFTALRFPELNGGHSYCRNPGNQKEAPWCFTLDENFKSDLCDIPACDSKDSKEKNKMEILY
T4 sequence (Q01974 34-403 limits assumed): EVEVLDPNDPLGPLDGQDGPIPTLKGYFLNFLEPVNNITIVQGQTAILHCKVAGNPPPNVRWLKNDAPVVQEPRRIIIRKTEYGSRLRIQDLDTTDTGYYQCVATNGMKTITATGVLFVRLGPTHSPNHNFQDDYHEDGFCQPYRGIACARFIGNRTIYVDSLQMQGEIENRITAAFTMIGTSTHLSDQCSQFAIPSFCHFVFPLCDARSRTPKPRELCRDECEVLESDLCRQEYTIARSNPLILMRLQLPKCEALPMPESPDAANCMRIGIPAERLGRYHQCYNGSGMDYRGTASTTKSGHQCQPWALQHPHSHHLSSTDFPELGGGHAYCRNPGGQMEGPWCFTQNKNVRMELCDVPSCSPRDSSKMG

B1: B31 (chimeric antibody) (antibody, human IgG1, kappa, V domains shown)
VH: EVMLVESGGGLVKPGGSLKLSCAASGFTFSRYAMSWVRQTPEKRLEWVASISRGGSTYYPDSVKGRFTISRDNARNILYLQMSSLRSEDTAMYYCASYFGNYDAMDYWGQGTSVTVSS
VL: DIQMNQSPSSMYASLGERVTITCKASQDINNYVSWFQQKPGKSPKTLIYRANRLVDGVPSRFSGSGSGQDYSFTISSLEYEDMGIYYCLQFDEFPYTFGGGTKLEIKR
notes: ExpiCHO expression
[1]
  Kd: 1.25 nM
  koff: 0.000817 s⁻¹
  kon: 653000 M⁻¹ s⁻¹
  t 1/2: 14.1 min
[2]
  EC50 (read off the curve): ~5 ng/mL
[3]
  binding result: no binding (tested: 1 µg/mL)
[4]
  EC50: 2.12 ng/mL
[5]
  EC50: 1.63 ng/mL
[6]
  EC50: 1.92 ng/mL
[7]
  EC50 (read off the curve): ~80 ng/mL
[8]
  EC50: 5.49 ng/mL
[9]
  binding result: no binding (tested: 1 µg/mL)
[10]
  Kd: 5.67 nM
  koff: 0.00217 s⁻¹
  kon: 383000 M⁻¹ s⁻¹
